Publication PMC6237804, “Nonfilament-forming RecA dimer catalyzes homologous joint formation” (Nucleic Acids Research, 2018)

Key:
[1] = molecular target: the molecule itself; assay: scanning-probe microscopy in dynamic force mode (DFM); RecA variant (0.2 μM RecA-wt or npRecA dimer, 0.8 μM npRecA monomer) incubated with linear pUC119 dsDNA (2.0 μM), ATPγS (0.5 mM), MgCl2 (10 mM), Tris-HCl pH 7.5, DTT, 30 min at 37°C; fixed with glutaraldehyde (0.2%) on mica; filament formation on DNA; also done with circular phage ssDNA
[2] = molecular target: RecA-3mΔC (UniProt P0A7G6 2-337, C117M;S118V;Q119R); assay: EMSA; 1.3 mM ATP; 'defective'; EMSA: standard reaction buffer (composition not in material), 4.5 uM (nt) ssDNA or 9.0 uM dsDNA, agarose gel, no fixation; 6-MI: 25 mM Tris-HCl pH 7.5, 10 mM MgCl2, 1 mM DTT, 25 C, 3.0 uM DNA; DFM: 0.5 mM ATPgS, 10 mM MgCl2, glutaraldehyde fixation; settings: protein: recombinant; label: FAM
[3] = molecular target: npRecA monomer (UniProt P0A7G6 31-337, C117M;S118V;Q119R); assay: EMSA; no nucleotide cofactor; EMSA: standard reaction buffer (composition not in material), 4.5 uM (nt) ssDNA or 9.0 uM dsDNA, agarose gel, no fixation; 6-MI: 25 mM Tris-HCl pH 7.5, 10 mM MgCl2, 1 mM DTT, 25 C, 3.0 uM DNA; DFM: 0.5 mM ATPgS, 10 mM MgCl2, glutaraldehyde fixation; settings: protein: recombinant; label: FAM
Sequence of npRecA monomer (P0A7G6 31-337 C117M/S118V/Q119R): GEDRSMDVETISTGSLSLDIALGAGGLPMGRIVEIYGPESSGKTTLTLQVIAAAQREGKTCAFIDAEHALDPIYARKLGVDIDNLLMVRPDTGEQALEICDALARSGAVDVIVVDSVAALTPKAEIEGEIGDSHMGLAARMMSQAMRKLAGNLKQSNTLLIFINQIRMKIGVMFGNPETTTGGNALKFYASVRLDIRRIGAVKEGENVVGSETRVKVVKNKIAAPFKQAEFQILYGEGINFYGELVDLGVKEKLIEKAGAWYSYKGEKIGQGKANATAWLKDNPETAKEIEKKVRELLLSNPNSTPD

Sequence of RecA-3mΔC (P0A7G6 2-337 C117M/S118V/Q119R): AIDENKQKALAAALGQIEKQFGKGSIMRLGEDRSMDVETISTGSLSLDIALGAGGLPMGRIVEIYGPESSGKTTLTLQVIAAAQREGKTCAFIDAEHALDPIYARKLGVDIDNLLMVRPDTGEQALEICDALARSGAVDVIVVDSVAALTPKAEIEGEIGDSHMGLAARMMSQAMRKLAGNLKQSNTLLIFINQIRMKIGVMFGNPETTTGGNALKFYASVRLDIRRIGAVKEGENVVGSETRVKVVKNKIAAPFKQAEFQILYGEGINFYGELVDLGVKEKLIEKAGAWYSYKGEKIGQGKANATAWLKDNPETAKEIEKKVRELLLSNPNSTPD

Binder | binding result [1] | binding result [2] | binding result [3]
Wild-type RecA (RecA-wt) (natural protein, E. coli, UniProt P0A7G6 1-353, looked up, wild-type RecA, Escherichia coli; source: purified as previously described (21,33)) MAIDENKQKALAAALGQIEKQFGKGSIMRLGEDRSMDVETISTGSLSLDIALGAGGLPMGRIVEIYGPESSGKTTLTLQVIAAAQREGKTCAFIDAEHALDPIYARKLGVDIDNLLCSQPDTGEQALEICDALARSGAVDVIVVDSVAALTPKAEIEGEIGDSHMGLAARMMSQAMRKLAGNLKQSNTLLIFINQIRMKIGVMFGNPETTTGGNALKFYASVRLDIRRIGAVKEGENVVGSETRVKVVKNKIAAPFKQAEFQILYGEGINFYGELVDLGVKEKLIEKAGAWYSYKGEKIGQGKANATAWLKDNPETAKEIEKKVRELLLSNPNSTPDFSVDDSEGVAETNEDF | binds |  | 
OL2 90-mer ssDNA (ssDNA) DNA: AAATCAATCTAAAGTATATATGAGTAAACTTGGTCTGACAGTTACCAATGCTTAATCAGTGAGGCACCTATCTCAGCGATCTGTCTATTT |  | no binding | no binding
